# From publication PMC9482650, “Quantitative fragmentomics allow affinity mapping of interactomes” (Nature Communications, 2022)
# T1: APBA3_1, O96018
# T1 sequence (O96018 389-490, limits assumed, looked up): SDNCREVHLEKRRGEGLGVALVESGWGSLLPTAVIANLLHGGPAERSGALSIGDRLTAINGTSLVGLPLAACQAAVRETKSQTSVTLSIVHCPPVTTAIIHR
# T2: CARD11, Q9BXL7
# T2 sequence (Q9BXL7 662-765, limits assumed, looked up): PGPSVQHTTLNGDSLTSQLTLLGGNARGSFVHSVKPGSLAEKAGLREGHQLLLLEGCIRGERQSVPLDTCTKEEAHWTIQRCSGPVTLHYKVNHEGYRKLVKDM
# T3: DVL3, Q92997
# T3 sequence (Q92997 244-331, limits assumed, looked up): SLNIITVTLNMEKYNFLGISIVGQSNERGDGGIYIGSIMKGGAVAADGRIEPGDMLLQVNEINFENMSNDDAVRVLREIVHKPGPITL
# T4: GRIP1_5, Q9Y3R0
# T4 sequence (Q9Y3R0 568-668, limits assumed, looked up): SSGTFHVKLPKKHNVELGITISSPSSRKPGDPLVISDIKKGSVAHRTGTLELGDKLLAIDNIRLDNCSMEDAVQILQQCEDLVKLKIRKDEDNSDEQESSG
# T5: HTRA3, P83110
# T5 sequence (P83110 354-453, limits assumed, looked up): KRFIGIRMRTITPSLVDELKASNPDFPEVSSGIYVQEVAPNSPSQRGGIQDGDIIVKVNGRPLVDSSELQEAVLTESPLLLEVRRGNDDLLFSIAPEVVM
# T6: LNX2_3, Q8N448
# T6 sequence (Q8N448 463-564, limits assumed, looked up): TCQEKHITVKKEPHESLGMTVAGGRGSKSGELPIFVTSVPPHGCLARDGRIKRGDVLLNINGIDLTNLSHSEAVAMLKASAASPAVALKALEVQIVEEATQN
# T7: LRRC7, Q96NW7
# T7 sequence (Q96NW7 1440-1537, limits assumed, looked up): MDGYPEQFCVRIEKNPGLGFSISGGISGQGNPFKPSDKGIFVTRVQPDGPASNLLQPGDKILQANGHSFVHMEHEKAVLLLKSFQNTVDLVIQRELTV
# T8: MPP7, Q5T2T1
# T8 sequence (Q5T2T1 134-230, limits assumed, looked up): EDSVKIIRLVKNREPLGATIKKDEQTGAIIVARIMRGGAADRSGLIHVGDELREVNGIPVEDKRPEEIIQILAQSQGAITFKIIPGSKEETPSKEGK
# T9: SNTB1, Q13884
# T9 sequence (Q13884 107-205, limits assumed, looked up): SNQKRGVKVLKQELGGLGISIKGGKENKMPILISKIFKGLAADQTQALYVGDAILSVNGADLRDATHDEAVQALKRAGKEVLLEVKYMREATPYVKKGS
# T10: TJP3_3, O95049
# T10 sequence (O95049 375-456, limits assumed, looked up): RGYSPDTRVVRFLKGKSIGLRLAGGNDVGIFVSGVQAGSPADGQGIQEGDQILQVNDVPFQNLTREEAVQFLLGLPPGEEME
# How the values were obtained:
# Experiment in all cases: holdup assay
# Design in all cases: key: below the threshold = too weak to quantify, mostly under pKd 3.1 to 4
# [1] = molecular target: T1, APBA3_1, O96018
# [2] = molecular target: T2, CARD11, Q9BXL7
# [3] = molecular target: DLG2_2, Q15700
# [4] = molecular target: DLG4_3, P78352
# [5] = molecular target: T3, DVL3, Q92997
# [6] = molecular target: FRMPD3, Q5JV73
# [7] = molecular target: GOPC, Q9HD26
# [8] = molecular target: GORASP2, Q9H8Y8
# [9] = molecular target: T4, GRIP1_5, Q9Y3R0
# [10] = molecular target: GRIP2_4, Q9C0E4
# [11] = molecular target: GRIP2_6, Q9C0E4
# [12] = molecular target: HTRA1, Q92743
# [13] = molecular target: HTRA2, O43464
# [14] = molecular target: T5, HTRA3, P83110
# [15] = molecular target: Inadl_6, Q8NI35
# [16] = molecular target: LAP2, Q96RT1
# [17] = molecular target: LNX1_1, Q8TBB1
# [18] = molecular target: LNX1_2, Q8TBB1
# [19] = molecular target: T6, LNX2_3, Q8N448
# [20] = molecular target: T7, LRRC7, Q96NW7
# [21] = molecular target: MAGI3_2, Q5TCQ9
# [22] = molecular target: T8, MPP7, Q5T2T1
# [23] = molecular target: NHERF4_1, Q86UT5-2
# [24] = molecular target: PDZRN4_1, Q6ZMN7
# [25] = molecular target: T9, SNTB1, Q13884
# [26] = molecular target: TJP1_3, Q07157
# [27] = molecular target: T10, TJP3_3, O95049
# [28] = plain residues with an end cap or a label only (N-terminal biotin on a linker: ttds)
# [29] = plain residues with an end cap or a label only (N-terminal biotin on a linker: gsgsgs; C-terminal amide)
# Sequence of GRIP2_6, Q9C0E4 (Q9C0E4 648-740): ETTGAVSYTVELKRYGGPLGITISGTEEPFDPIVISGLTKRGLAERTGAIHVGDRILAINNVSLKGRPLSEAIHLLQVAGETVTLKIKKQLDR
# Sequence of DLG2_2, Q15700 (Q15700 189-283): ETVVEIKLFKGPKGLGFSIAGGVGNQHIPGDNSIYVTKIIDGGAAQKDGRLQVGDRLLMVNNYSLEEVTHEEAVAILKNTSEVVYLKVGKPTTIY
# Sequence of MAGI3_2, Q5TCQ9 (Q5TCQ9 398-503): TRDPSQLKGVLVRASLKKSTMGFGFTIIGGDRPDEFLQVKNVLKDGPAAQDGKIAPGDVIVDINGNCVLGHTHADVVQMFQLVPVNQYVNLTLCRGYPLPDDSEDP
# Sequence of LNX1_2, Q8TBB1 (Q8TBB1 371-470): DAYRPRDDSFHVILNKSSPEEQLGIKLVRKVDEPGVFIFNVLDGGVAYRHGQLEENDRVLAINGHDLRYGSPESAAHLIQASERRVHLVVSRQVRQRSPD
# Sequence of DLG4_3, P78352 (P78352 306-403): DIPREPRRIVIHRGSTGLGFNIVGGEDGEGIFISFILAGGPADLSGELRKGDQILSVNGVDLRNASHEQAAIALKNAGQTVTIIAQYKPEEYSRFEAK
# Sequence of LNX1_1, Q8TBB1 (Q8TBB1 261-371): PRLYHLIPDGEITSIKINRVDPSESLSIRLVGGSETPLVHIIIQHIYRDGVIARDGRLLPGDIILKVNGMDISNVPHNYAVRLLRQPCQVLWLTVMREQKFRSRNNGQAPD
# Sequence of Inadl_6, Q8NI35 (Q8NI35 1058-1167): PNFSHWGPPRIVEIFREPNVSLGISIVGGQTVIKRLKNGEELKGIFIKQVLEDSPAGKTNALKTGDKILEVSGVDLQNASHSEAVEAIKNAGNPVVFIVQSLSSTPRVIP
# Sequence of FRMPD3, Q5JV73 (Q5JV73 12-100): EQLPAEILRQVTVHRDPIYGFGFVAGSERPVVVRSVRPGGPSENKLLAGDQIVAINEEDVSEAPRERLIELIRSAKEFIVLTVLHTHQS
# Sequence of TJP1_3, Q07157 (Q07157 416-512): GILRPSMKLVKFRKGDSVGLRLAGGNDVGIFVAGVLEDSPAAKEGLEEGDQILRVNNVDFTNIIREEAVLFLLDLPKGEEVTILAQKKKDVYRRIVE
# Sequence of LAP2, Q96RT1 (Q96RT1 other isoform, or with tags, fused parts or gaps): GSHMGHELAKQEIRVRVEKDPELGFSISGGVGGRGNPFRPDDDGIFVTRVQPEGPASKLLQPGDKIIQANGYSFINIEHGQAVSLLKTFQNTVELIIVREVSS
# Sequence of PDZRN4_1, Q6ZMN7 (Q6ZMN7 213-318): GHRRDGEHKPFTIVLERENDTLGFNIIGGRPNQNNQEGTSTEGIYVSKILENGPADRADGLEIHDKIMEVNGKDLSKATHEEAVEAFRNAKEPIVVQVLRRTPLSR
# Sequence of HTRA1, Q92743 (Q92743 360-477): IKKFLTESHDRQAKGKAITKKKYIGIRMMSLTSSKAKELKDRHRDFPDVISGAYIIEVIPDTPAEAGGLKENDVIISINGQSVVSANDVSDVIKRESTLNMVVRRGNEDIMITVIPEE
# Sequence of HTRA2, O43464 (O43464 355-458): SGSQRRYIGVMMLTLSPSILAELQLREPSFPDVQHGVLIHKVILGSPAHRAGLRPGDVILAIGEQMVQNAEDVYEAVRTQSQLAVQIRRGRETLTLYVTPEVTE
# Sequence of NHERF4_1, Q86UT5-2 (Q86UT5 other isoform, or with tags, fused parts or gaps): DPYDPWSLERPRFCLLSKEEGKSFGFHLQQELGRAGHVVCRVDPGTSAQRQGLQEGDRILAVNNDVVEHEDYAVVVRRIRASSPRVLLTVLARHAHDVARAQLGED
# Sequence of GRIP2_4, Q9C0E4 (Q9C0E4 446-548): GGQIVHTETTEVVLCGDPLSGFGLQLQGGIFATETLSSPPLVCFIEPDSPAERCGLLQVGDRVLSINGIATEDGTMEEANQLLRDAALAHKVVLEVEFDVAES
binder,measurement,setting,value
"RPLPRKVSQL [DOCK4, Q8N1I0]",pKd,[1]; [28],below the threshold
same,pKd,[2]; [28],below the threshold
same,pKd,[3]; [28],below the threshold
same,pKd,[4]; [28],3.69
same,pKd,[5]; [28],below the threshold
same,pKd,[6]; [28],below the threshold
same,pKd,[7]; [28],4.03
same,pKd,[8]; [28],4.85
same,pKd,[9]; [28],below the threshold
same,pKd,[10]; [28],below the threshold
same,pKd,[11]; [28],below the threshold
same,pKd,[12]; [28],below the threshold
same,pKd,[13]; [28],below the threshold
same,pKd,[14]; [28],below the threshold
same,pKd,[15]; [28],below the threshold
same,pKd,[16]; [28],3.73
same,pKd,[17]; [28],below the threshold
same,pKd,[18]; [28],below the threshold
same,pKd,[19]; [28],below the threshold
same,pKd,[20]; [28],below the threshold
same,pKd,[21]; [28],4.69
same,pKd,[22]; [28],below the threshold
same,pKd,[23]; [28],4.32
same,pKd,[24]; [28],3.5
same,pKd,[25]; [28],3.55
same,pKd,[26]; [28],below the threshold
same,pKd,[27]; [28],below the threshold
"YGIVQETTFDLGGDIH [MLLT4_int, P55196]",pKd,[1]; [29],below the threshold
same,pKd,[2]; [29],below the threshold
same,pKd,[3]; [29],below the threshold
same,pKd,[4]; [29],below the threshold
same,pKd,[5]; [29],below the threshold
same,pKd,[6]; [29],below the threshold
same,pKd,[7]; [29],below the threshold
same,pKd,[8]; [29],below the threshold
same,pKd,[9]; [29],below the threshold
same,pKd,[10]; [29],below the threshold
same,pKd,[11]; [29],below the threshold
same,pKd,[12]; [29],below the threshold
same,pKd,[13]; [29],below the threshold
same,pKd,[14]; [29],below the threshold
same,pKd,[15]; [29],below the threshold
same,pKd,[16]; [29],below the threshold
same,pKd,[17]; [29],below the threshold
same,pKd,[18]; [29],below the threshold
same,pKd,[19]; [29],below the threshold
same,pKd,[20]; [29],below the threshold
same,pKd,[21]; [29],below the threshold
same,pKd,[22]; [29],below the threshold
same,pKd,[23]; [29],below the threshold
same,pKd,[24]; [29],below the threshold
same,pKd,[25]; [29],3.53
same,pKd,[26]; [29],below the threshold
same,pKd,[27]; [29],below the threshold
"FHPLGADSQV [SLC2A1, P11166]",pKd,[1]; [28],below the threshold
same,pKd,[2]; [28],below the threshold
same,pKd,[3]; [28],3.65
same,pKd,[4]; [28],below the threshold
same,pKd,[5]; [28],below the threshold
same,pKd,[6]; [28],below the threshold
same,pKd,[7]; [28],below the threshold
same,pKd,[8]; [28],below the threshold
same,pKd,[9]; [28],below the threshold
same,pKd,[10]; [28],below the threshold
same,pKd,[11]; [28],below the threshold
same,pKd,[12]; [28],below the threshold
same,pKd,[13]; [28],below the threshold
same,pKd,[14]; [28],below the threshold
same,pKd,[15]; [28],below the threshold
same,pKd,[16]; [28],3.48
same,pKd,[17]; [28],below the threshold
same,pKd,[18]; [28],below the threshold
same,pKd,[19]; [28],below the threshold
same,pKd,[20]; [28],below the threshold
same,pKd,[21]; [28],below the threshold
same,pKd,[22]; [28],below the threshold
same,pKd,[23]; [28],below the threshold
same,pKd,[24]; [28],below the threshold
same,pKd,[25]; [28],3.64
same,pKd,[26]; [28],below the threshold
same,pKd,[27]; [28],below the threshold
"VDFPPKESSL [ACVR2A, P27037]",pKd,[1]; [28],below the threshold
same,pKd,[2]; [28],below the threshold
same,pKd,[3]; [28],3.84
same,pKd,[4]; [28],3.71
same,pKd,[5]; [28],below the threshold
same,pKd,[6]; [28],below the threshold
same,pKd,[7]; [28],3.45
same,pKd,[8]; [28],3.87
same,pKd,[9]; [28],below the threshold
same,pKd,[10]; [28],below the threshold
same,pKd,[11]; [28],below the threshold
same,pKd,[12]; [28],below the threshold
same,pKd,[13]; [28],below the threshold
same,pKd,[14]; [28],below the threshold
same,pKd,[15]; [28],below the threshold
same,pKd,[16]; [28],below the threshold
same,pKd,[17]; [28],below the threshold
same,pKd,[18]; [28],below the threshold
same,pKd,[19]; [28],below the threshold
same,pKd,[20]; [28],below the threshold
same,pKd,[21]; [28],3.3
same,pKd,[22]; [28],below the threshold
same,pKd,[23]; [28],3.35
same,pKd,[24]; [28],4.7
same,pKd,[25]; [28],4.41
same,pKd,[26]; [28],below the threshold
same,pKd,[27]; [28],below the threshold
